Laboratory results published in the Human Domainome abundance scans (Beltran et al. 2025).
± gives the uncertainty stated by the source.

B1: Intersectin-2, residues 1129 to 1183; numbered along this chain, Q9NZM3 (parent)
chain: VCQVIAMYDYAANNEDELSFSKGQLINVMNKDDPDWWQGEINGVTGLFPSNYVKM

Variants of: B1
Assay: abundance fitness (aPCA) (normalised: wild type 0, dead -1); higher = more abundant; growth selection in yeast, the domain comes from the species named
Conditions: Homo sapiens

Compared with VCQVIAFYDYAANNEDELSFSKGQLINVMNKDDPDWWQGEINGVTGLFPSNYVKM [M7F], VCQVIAMYDYAANNEDELSFSKGQLINVMNKDDRDWWQGEINGVTGLFPSNYVKM [P34R] is higher in abundance fitness: -0.168 ± 0.072 for the first, -0.018 ± 0.043 for the second.

VCQVIAMYDYAANNEDELSFSKGQLINVMTKDDPDWWQGEINGVTGLFPSNYVKM [N30T] and VCQVIAMYDYAANNEDELSFSKGQLIMVMNKDDPDWWQGEINGVTGLFPSNYVKM [N27M] are within error of each other in abundance fitness: -0.034 ± 0.033 for the first, -0.02 ± 0.05 for the second.

ECQVIAMYDYAANNEDELSFSKGQLINVMNKDDPDWWQGEINGVTGLFPSNYVKM [V1E] and VCQVIAMYDYAANNEDELSFSKGQLINVMNKDDPDMWQGEINGVTGLFPSNYVKM [W36M] are within error of each other in abundance fitness: -0.054 ± 0.041 for the first, 0.002 ± 0.032 for the second.

VCQVIAMYDYAANNEDELSFSKGQLINVMNKDDPDWWQGMINGVTGLFPSNYVKM [E40M] and VCQVIAMYDYAANNEDEVSFSKGQLINVMNKDDPDWWQGEINGVTGLFPSNYVKM [L18V] are within error of each other in abundance fitness: -0.08 ± 0.058 for the first, -0.092 ± 0.041 for the second.

Compared with VCQVIAMYDYAANNEDELSFSKGQLINVMNKDCPDWWQGEINGVTGLFPSNYVKM [D33C], VCQVIAMYDYAANNEDELSFSKGQLINVMNKDDPDWWQGEINGVTGLAPSNYVKM [F48A] is lower in abundance fitness: 0.042 ± 0.06 for the first, -0.69 ± 0.036 for the second.

Going from VCQVIAMYDYAANNEDELSFSKGQLINVMNKDDPDWWQGEINGVTGLFPSNYVKR [M55R] to VCQVIAMYDYAANNEDELSFSKGQLINVMNKDDPDWWQGEINGVTILFPSNYVKM [G46I], the abundance fitness falls from -0.088 ± 0.052 to -1.14 ± 0.22.

First: VCQVIAMYDYAANNEDELSFSKGQLINVMNKDDPDWWQGEINGVTGLFPSNYVSM [K54S]
Second: VCQEIAMYDYAANNEDELSFSKGQLINVMNKDDPDWWQGEINGVTGLFPSNYVKM [V4E]
The abundance fitness of the first is higher: -0.055 ± 0.047 for the first, -0.405 ± 0.066 for the second.

VCQVIAMYDYAANNEDELSFSKGQLINVMNKDDPDWWQGEINGVTGLFPSNYCKM [V53C] and VCQVIAMYDYAANAEDELSFSKGQLINVMNKDDPDWWQGEINGVTGLFPSNYVKM [N14A] are within error of each other in abundance fitness: -0.054 ± 0.034 for the first, -0.038 ± 0.05 for the second.

VCQVIAMYDYAANNEDELSFSKGQLINVMNKDDPDWWQGEINGVTGQFPSNYVKM [L47Q] and VCQVIAMYDYAANNEDELSFSKGQLINVMNKDDPDWWQGEINGVTGLFPSHYVKM [N51H] are within error of each other in abundance fitness: -0.019 ± 0.05 for the first, -0.025 ± 0.029 for the second.

VCQVIAMYDYAANNEDELSFIKGQLINVMNKDDPDWWQGEINGVTGLFPSNYVKM [S21I] and VCQVIAMYDYAGNNEDELSFSKGQLINVMNKDDPDWWQGEINGVTGLFPSNYVKM [A12G] are within error of each other in abundance fitness: -0.045 ± 0.074 for the first, -0.068 ± 0.041 for the second.

VCQVIAMYDYAANNEDELSFSTGQLINVMNKDDPDWWQGEINGVTGLFPSNYVKM [K22T] and VCQVIAMYDYAANNEDELSFSKGQLINVMNKDDPDWWQGEINGVRGLFPSNYVKM [T45R] are within error of each other in abundance fitness: -0.064 ± 0.051 for the first, -0.076 ± 0.044 for the second.

VCQVIAMYDYAANNEDELSFSKGQLINVMNKDDPDWWQGEINGVTKLFPSNYVKM [G46K] and VCQVIAMYDYAANNIDELSFSKGQLINVMNKDDPDWWQGEINGVTGLFPSNYVKM [E15I] are within error of each other in abundance fitness: -0.1 ± 0.033 for the first, -0.076 ± 0.054 for the second.

First: VCQVIAMYDYAANNEDELSFSKKQLINVMNKDDPDWWQGEINGVTGLFPSNYVKM [G23K]
Second: VCQVIAMYDYAANNEDELSFSKGQSINVMNKDDPDWWQGEINGVTGLFPSNYVKM [L25S]
The abundance fitness of the first is lower: -0.103 ± 0.048 for the first, -0.01 ± 0.032 for the second.

Going from VCQVIAMYDYAANNEDELSFSKGQLINVMNKDDPDWWQGEINGVTGLFPSNFVKM [Y52F] to VCQVIAMYDYAANVEDELSFSKGQLINVMNKDDPDWWQGEINGVTGLFPSNYVKM [N14V], the abundance fitness falls from 0.15 ± 0.078 to -0.099 ± 0.043.

Going from VCQVHAMYDYAANNEDELSFSKGQLINVMNKDDPDWWQGEINGVTGLFPSNYVKM [I5H] to VCQVIAMYDYAANNEDELSFSKGQLINVENKDDPDWWQGEINGVTGLFPSNYVKM [M29E], the abundance fitness rises from -0.188 ± 0.063 to -0.006 ± 0.038.

First: VCQVIAMYDYAANNEDELSFSKGQLINVMNKDDPDWWQGEINGDTGLFPSNYVKM [V44D]
Second: VCQVIAPYDYAANNEDELSFSKGQLINVMNKDDPDWWQGEINGVTGLFPSNYVKM [M7P]
The abundance fitness of the first is higher: -0.117 ± 0.062 for the first, -0.897 ± 0.088 for the second.

Going from VCQVIAMYDYAANNEDELSFSKGQLINVMNKDDMDWWQGEINGVTGLFPSNYVKM [P34M] to VCQVIAMYDYAANNEDELSFSKGQLINVMNKDDPDWWQREINGVTGLFPSNYVKM [G39R], the abundance fitness falls from -0.015 ± 0.056 to -1.06 ± 0.073.

VCQVIAMYDYAANNEDELSFMKGQLINVMNKDDPDWWQGEINGVTGLFPSNYVKM [S21M] and DCQVIAMYDYAANNEDELSFSKGQLINVMNKDDPDWWQGEINGVTGLFPSNYVKM [V1D] are within error of each other in abundance fitness: -0.05 ± 0.045 for the first, -0.043 ± 0.056 for the second.

Going from VCQVIAMYDYAANNEDELSFSKGQLINVMNKDDPDWWQGEINGVTGLFPSWYVKM [N51W] to VCQVIAMYDYAANGEDELSFSKGQLINVMNKDDPDWWQGEINGVTGLFPSNYVKM [N14G], the abundance fitness rises from -0.121 ± 0.031 to -0.024 ± 0.045.

Compared with VCQVIAMYDYAANNEDELSFSKGQLINVMNKDDPDWWQGEINTVTGLFPSNYVKM [G43T], VCQVIAMYDYAANNEDELSFSKGQLINVMNKDDPDWKQGEINGVTGLFPSNYVKM [W37K] is lower in abundance fitness: -0.128 ± 0.044 for the first, -1.03 ± 0.095 for the second.

Going from VCQVIAMYDYDANNEDELSFSKGQLINVMNKDDPDWWQGEINGVTGLFPSNYVKM [A11D] to VCQVIAMYDYAANNEDELSFSKGQLINVMNKHDPDWWQGEINGVTGLFPSNYVKM [D32H], the abundance fitness falls from 0.007 ± 0.042 to -0.18 ± 0.06.

VCQVIAMYDYAANNEDELSFSKGQLINVMNKDDPDWWQGEINGVTGKFPSNYVKM [L47K] and VCQVIAMYDYAANNEDELSFSKGQLINVLNKDDPDWWQGEINGVTGLFPSNYVKM [M29L] are within error of each other in abundance fitness: 0.039 ± 0.052 for the first, -0.013 ± 0.04 for the second.

VCQVIAMYDYAANNEDELSFSKGQLINVMNKDDPDWWQGECNGVTGLFPSNYVKM [I41C] and VCQVIAMYDYAANNEDELSFCKGQLINVMNKDDPDWWQGEINGVTGLFPSNYVKM [S21C] are within error of each other in abundance fitness: -0.148 ± 0.052 for the first, -0.053 ± 0.049 for the second.

Compared with VCQVIAMYDYAANNEDELSFSKGQLINVMNKDDPDWWQGFINGVTGLFPSNYVKM [E40F], VCQVIAMYDYAANNEDELSFSKGQLINVMNKDDPDWWQGEINGSTGLFPSNYVKM [V44S] is higher in abundance fitness: -0.142 ± 0.056 for the first, -0.046 ± 0.034 for the second.
